The record followed here is the nanobody polyreactivity screen of Harvey et al. (2022).

The series can be described thus: yeast display, Sf9 membrane polyspecificity reagent, FACS + sequencing; frameworks hold sequencing errors. The method, boiled down:
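A synthetic nanobody library was expressed on Saccharomyces cerevisiae BJ5465 by galactose induction for 36–48 hours. The library was stained for 1 hour at 4 °C with 10% biotinylated, detergent-solubilized Sf9 membrane reagent and enriched with streptavidin microbeads before FACS. Low and high (top ~1%) gates were set on anti-HA fluorescence for expression and streptavidin fluorescence for reagent binding, and each polyreactivity label reflects the gate of origin.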
Take “QVQLVESGGGLVQAGGSLRLSCAASGITFSQYAMGWYRQAPGTERELVAAISGSGGDTYYADSVKGRFTISRDNAKNTVYLQMNSLKPEDTAVYYCNADYESVYYEDYDYWGQGTQVTVSS”: the “polyreactivity (PSR sort gate)” value is on record as “low polyreactivity”.

As to “QVQLVESGGGLVQAGGSLRLSCAASGRIFPEYTMGWYRQAPGKERELVAAISKRGSSTNYADSVKGRFTISRDNAKNTVYLQMNSLKPEDTAVYYCAARGYTLSYVDMYYWGQGTQVIVSS”, the “polyreactivity (PSR sort gate)” value is on record as “high polyreactivity”. With “QVQLVESGGGLVQAGGSLRLSCAASGSIFYPYAMGWYRQAPGKERELVAAIRWRGGNTYYADSVKGRFTISRDNAKNTVYLQMNSLKPEDTAVYYCAADGKYLQGFGYYYWGQGTQVTVSS”, the “polyreactivity (PSR sort gate)” value is “high polyreactivity”. Under “QVQLVESGGGLVQAGGSLRLSCAASGLTFVVYAMGWYRPAPGKERELVAASDFSGGDTYYADSVKGRFTISRDNAKNTVYLQRNSLKPEDTADYYCAAEYYGPSYYIGFDYWGQGTQVTVSS” stands “high polyreactivity”; under “QVQLVESGGGLVQAGGSLRLSCAPSGNTFFLNAMGWYRQAPGKERELVAAITSSGGSTYYADSVKGRFTISRDNAKNTVYLQMNSLKPEDTAVYYCGTDRSYPPRSLNRRGPYEYWGQGTQVTVSS”, “low polyreactivity”. “QVQLVESGGGLVQAGGSLRLSCAASGRIFYYYAMGWYRQAPGKERELVAAISAGGGRTYYADSVKGRFTISRDNAKNTVYLQMNSLKPEDTAVYYCAVGRRIPGKYTSFGYWGQGTQVTVSS”: the “polyreactivity (PSR sort gate)” value is “high polyreactivity”. Turning to “QVQLVESGGGLVQAGGSLRLSCAASGLTFRGNVMGWYRQAPGKERELVAAISRSGNTYYADSVKGRFTISRDNAKNTVYLQMNSLKPEDTAVYYCAAQSVRWYSSFKYYYWGQGTQVTVSS”, the “polyreactivity (PSR sort gate)” value is reported as “high polyreactivity”. For “QVQLVESGGGLVQAGGSLRLSCAASGITFATNAMGWYRQAPGKERDLVAGITSGGSTYYADSVKGRFTISRDNAKNTVYLQMNSLKPEDTAVYYCAKRYHYWYGTGYDYWGQGTQVTVSS”, the “polyreactivity (PSR sort gate)” value is recorded as “low polyreactivity”. Under “QVQLVESGGGLVQAGGSLRLSCAASGYTFSGYAMGWYRQAPGKERELVAAITSSGGTTYYADSVKGRFTISRDNAKNTVYLQMNSLKPEDTAVYYCNAYYSHYGDTEDYYWGQGTQVTVSS” stands “high polyreactivity”; under “QVQLVESGGGLVQAGGSLRLSCAASGRILGNNVMGWYRQAPGKERELVAAITSSGGRTYYADSVKGRFTISRDNAKNTVYLQMNSLKPEDTAVYYCAAERRYYGKFNYWGQGTQVTVSS”, “high polyreactivity”. With “QVQLVESGGGLVQAGGSLRLSCAASGSTFVSNAMGWYRPAPGKERELVAAISSSGGRTSYADSVKGRFTISRDNAKNTVYLQMNSLKPEDTAVYYCAARFKSVDYVQYYYWGQGTQVTVSS” the entry was “low polyreactivity”; with “QVQLVESGGGLVQAGGSLRLSCAASGITLDRYDMGWYRQAPGKERELVAAISRSGVRTYYADSVKGRFTISRDNAKNTVYLQMNSLKPEDTAVYYCNKGYARRYASGYDYWGQGTQVTVSS”, “high polyreactivity”; with “QVQLVESGGGLVQAGGSLRLSCAASGSIFHTYAMGWYRQAPGKERELVAAITVSGGDTYYADSVKGRFTISRDNAKNTGYLQMNSLKPEDTAVYYCAKRIFDTFDSWGQGTQVTVSS”, “low polyreactivity”.

For the sequence “QVQLVESGGGLVQAGGSLRLSCAASGRTFYTYAMGWYRQAPGKERELVAAISSDGSTYYADSVKGRFTISRDNAKNTVYLQMNSLKPEDTAVYYCAADYSPWYWGYTYYYWGQGTQVTVSS”, the “polyreactivity (PSR sort gate)” value is “high polyreactivity”. Consider “QVQLVESGGGLVQAGGSLRLSCAASGVTFESYDMGWYRQAHGKERELVAAITWDGGSTYYADSVKGRFTISRDNAKNTVYLQMNSLKPEDTAVYYCAADFGTISIDVYSWMDYWGQGTQVTVSS”, for which the “polyreactivity (PSR sort gate)” value was “low polyreactivity”. With “QVQLVESGGGLVQAGGSLRLSCAASGITFRSYAMGWYRQAPGKERELVAAISSTGRTYYADSVKGRFTISRDNAKNTVYLQMNSLKPEDTAVYYCATGGQGAFWGQGTQVTVSS” the entry was “high polyreactivity”; with “QVQLVESGGGLVQAGGSLRLSCAASGRIFSGNAMGWYRQAPGKERELVAAISWGGGRTYYADSVKGRFTISRDNAKNTVYLQMNSLKPEDTAVFYCNTVRQRARFTKVDYWGQGTQVTVSS”, “high polyreactivity”.

As to “QVQLVESGGGLVQAGGSLRLSCAASGFTFARNAMGWYRPAPGKERELVAGITSRGSSTSYADSVKGRFTISRDNAKNTVYLQMNSLKPEDTAVYYSAADRYSAYLYWDEYWGQGTQVTVSS”, the “polyreactivity (PSR sort gate)” value is on record as “high polyreactivity”. With “QVQLVESGGGLVQAGGSLRLSCAASGFIITSYAMGWYRQAPGKERELVATISSSGGTTYYADSVKGRFTISRDTAKNTVYLQMNSLKPEDTAVYYCAKDAFGWGRVYYYRSGYWGQGTQVTVSS” the entry was “high polyreactivity”. With “QVHLVDSGGGLVQAGGSLRLSCAATGFTFWYYAMGWYRQAPWKERELVATITWNGGSTYYADSVKGRFTISRDNAKNTVYIQMNSLQPEDTAVYYCNKSYISSSSWQYYYWGQGTQVTVSS” the entry was “low polyreactivity”; with “QVQLVESGGGLVQAGGSLRLSSAASGSTFVVNAMGWYRQAPGKERELVAAITQSGGSTFYADSVKGRFTISRDNAKNTVYLQMNSLKPEDTAVYYWGQGTQLTVSS”, “low polyreactivity”. Consider “QVQLVESGGGLVQAGGSLRLRCAASGSTFGGYAMGWYRQAPGKERELVAAIANGDRTNYADSVKGRFIISRDNAKNTVYLQMNSLKPEDTAVYYCNKDGPSYSSYDNWGQGTQVTVSS”, for which the “polyreactivity (PSR sort gate)” value was “low polyreactivity”.

For the sequence “QVQHVESGGGLVQAGGSLRLSCASSGRIFSDYAMGWYRPAPGKERELVAAISRSGTRTYYADSVKGRFTISRDNAKNTVYFQMISLKPEDTAVYYCAAKTQSGRAGQEEDYWGQGTQVTVSS”, the “polyreactivity (PSR sort gate)” value was “high polyreactivity”. With “QVQLVESGGGIVQAGGSLRLSCSASGFSFSSYAMGWYRQAPGKERELVASITWSGGRTYYADSVKGRFTISRDNAKNTVYLQMNSLKPEDTAVYYCAPGDVNWSYSLLYTVVLFDSWGQGTQVTVSS” the entry was “high polyreactivity”. With “QVQLVESGGGLVQAGGSLRLSCAASGFTFVRYAMGWYRQAPGKESEFVASISARGGNTFYADSVKGRFTISRDNAKNTVYLQMNSLKPEDTAVYYCAKPGPYGTGYGYWGQGTQVTVSS” the entry was “high polyreactivity”; with “QDQLVESGGGLVQAGGSLRLSCAASVSTFRVYAMGWYRQAPGKERELVAAISSSGGITYYADSVKGRFTLSRDNAKNTVYLQMNSLKPEATAVYYCAKGTVIHVLYDYWGEGTQVTVSS”, “low polyreactivity”. With “QVQLVESGGGLVQAGGSLRLSCAASGFIFRYYAMGWYRQEPGKERELVAAIDYSGGSTNYADSVKGRFTISRDNAKNTVYLQMNSLKPEDTAVYYCNAEYTWHRGYDYWGQGTQVTVSS” the entry was “low polyreactivity”. “QVQLVESGGGLVQAGGSLRLSCAASGRTLPGYVMGWYRQEPGKERELVSTISSGDRTNYADSVKGRFTISRDNAKNTVYLQMNSLKPEETAVYYCAAPYVASGYYIWSPWLYDSWGQGTQVTVSS”: the “polyreactivity (PSR sort gate)” value is recorded as “low polyreactivity”. Under “QVQLVESGGGLVQAGGSLRLSCAASGNTFWYNAMGWYRQSPGKERELVAAISYSGGGTYYADSVKGRFTISRDNAKNTVYLQMNSLKPEDTAVYYCAADTLQRAFVLNDYWGQGTQVTVSS” stands “low polyreactivity”. With “QVQLVESGRGLVQAGGSLRLSCAASGRIFYYNDMGWYRQAPGKERELVASITGSGGSTYYADSVKGRFTISRDNAKNTVYLQMNSLKPEDTAVYYCAKREYLYPYYYVAKYDYWGQGTQVTVSS” the entry was “low polyreactivity”.
